Results as given in patent US7057012B1, “PTH functional domain conjugate peptides, derivatives thereof and novel tethered ligand-receptor molecules” (The General Hospital Corporation, priority 1998, dated 2006).
Like-named read-outs stand apart in the source and are kept apart here. Blank lines part the entries; values can stand above or below the substance they belong to. No end group written: not given here.

Assays:
human PTH-1 receptor = target: T1, human PTH-1 receptor (Homo sapiens, UniProt Q03431); test: cAMP accumulation in COS cells expressing the human PTH-1 receptor; assay type: cell-based; conditions: for cAMP accumulation as compared to basal levels in un-stimulated cells: 60 min at 21° C.
T1 sequence (Q03431 27-593): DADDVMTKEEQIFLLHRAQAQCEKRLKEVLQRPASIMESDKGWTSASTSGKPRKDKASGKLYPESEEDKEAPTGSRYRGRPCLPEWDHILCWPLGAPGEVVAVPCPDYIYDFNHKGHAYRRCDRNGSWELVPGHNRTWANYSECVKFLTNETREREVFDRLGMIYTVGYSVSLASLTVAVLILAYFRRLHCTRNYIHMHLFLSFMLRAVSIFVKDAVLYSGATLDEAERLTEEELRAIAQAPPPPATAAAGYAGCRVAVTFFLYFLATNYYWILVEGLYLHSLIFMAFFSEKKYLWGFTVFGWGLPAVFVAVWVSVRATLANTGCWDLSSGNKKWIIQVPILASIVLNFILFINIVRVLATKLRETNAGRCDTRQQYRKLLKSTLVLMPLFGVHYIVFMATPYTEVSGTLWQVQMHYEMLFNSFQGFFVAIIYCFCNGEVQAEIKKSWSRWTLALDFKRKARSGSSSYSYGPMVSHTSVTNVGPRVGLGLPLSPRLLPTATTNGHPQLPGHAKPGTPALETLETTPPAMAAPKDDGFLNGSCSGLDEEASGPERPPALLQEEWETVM
Description: Intracellular cAMP accumulation is measured as described previously (Abou-Samra et al., J. Biol. Chem. 262:1129, 1986). Cells grown in 24-well plates are rinsed with culture medium containing 0.1% BSA and 2 mM IBMX. The cells are then incubated with an S-(L)n-B compound or derivatives thereof for 60 min. at 21° C. The supernatant is removed and the cells immediately frozen by placing the whole plate in dry ice powder. Intracellular cAMP is extracted by thawing the cells in 1 ml of 50 mM HCl and analyzed by a specific radioimmunoassay using an anti-cAMP antibody (e.g., Sigma, St. Louis, Mo.). A cAMP analog (2′-O-monosuccinyl-adenosine 3′:5′-cyclic monophosphate tyrosyl methyl ester, obtained from Sigma) which is used a tracer for cAMP is iodinated by the chloramine T method. Free iodine is removed by adsorbing the iodinated cAMP analog onto a C18Sep-pak cartridge (Waters, Milford, Mass.). After washing with dH20, the iodinated cAMP analog is eluted from the Sep-pak Cartridge with 40% acetonitrille (ACN) and 0.1% trifluoroacetic acid (TFA). The iodinated cAMP analog is lyophilized, reconstituted in 1 ml 0.1% TFA, and injected into a C18 reverse phase HPLC column (Waters). The column is equilibrated with 10% ACN in 0.1% TFA, and eluted with gradient of 10–30% ACN in 0.1% TFA. This allows separation of the mono-iodinated cAMP analog from the non-iodinated cAMP analog. The tracer is stable for up to 4 months when stored at −20° C. The standard used for the assay, adenosine 3′:5′-cyclic monophosphate, may be purchased from Sigma. Samples (1–10 µl of HCl extracts) or standards ([…]) are diluted in 50 Mm Na-acetate (pH 5.5), and acetylated with 10 μl of mixture of triethylamine and acetic anhydride (2:1 vol:vol). After acetylation, cAMP antiserum (100 μl) is added from a stock solution (1:4000) made in PBS (pH 7.4), 5 mM EDTA and 1% normal rabbit serum. The tracer is diluted in PBS (pH 7.4) with 0.1% BSA, and added (20,000 cpm/tube). The assay is incubated at 4° C. overnight. […] The supernatant is removed and the bound radioactivity is counted in a gamma-counter (Micromedic). […]
In order to screen for agonist activity, functional domain conjugate peptides of the invention were utilized in in vitro assays designed to measure cellular response via cAMP accumulation. Intracellular cAMP accumulation is measured as described previously (Abou-Samra et al., J. Biol. Chem. 262:1129, 1986).
Cells grown in 24-well plates are rinsed with culture medium containing 0.1% BSA and 2 mM IBMX. […] Intracellular cAMP is extracted by thawing the cells in 1 ml of 50 mM HCl and analyzed by a specific radioimmunoassay using an anti-cAMP antibody (e.g., Sigma, St. Louis, Mo.). […]

wildtype PTH receptor = target: T2, wildtype PTH receptor (Rattus norvegicus, UniProt P25961); conditions: read-out: EC50, cAMP formation, cited from earlier work
T2 sequence (P25961 27-591): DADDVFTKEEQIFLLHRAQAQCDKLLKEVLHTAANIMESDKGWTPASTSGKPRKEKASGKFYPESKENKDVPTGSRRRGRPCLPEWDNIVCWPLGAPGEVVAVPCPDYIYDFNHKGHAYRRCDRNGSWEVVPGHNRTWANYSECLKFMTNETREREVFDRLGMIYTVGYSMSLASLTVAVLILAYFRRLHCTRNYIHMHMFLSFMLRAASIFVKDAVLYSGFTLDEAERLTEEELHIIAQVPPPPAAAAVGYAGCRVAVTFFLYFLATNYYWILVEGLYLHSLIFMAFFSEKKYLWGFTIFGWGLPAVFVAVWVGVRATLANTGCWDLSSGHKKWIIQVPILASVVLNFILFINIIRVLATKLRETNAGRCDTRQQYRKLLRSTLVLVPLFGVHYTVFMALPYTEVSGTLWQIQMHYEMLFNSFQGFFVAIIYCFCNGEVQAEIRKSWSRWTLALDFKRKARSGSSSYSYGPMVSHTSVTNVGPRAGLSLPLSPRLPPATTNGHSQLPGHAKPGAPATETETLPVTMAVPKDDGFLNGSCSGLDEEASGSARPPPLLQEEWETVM

truncated PTH receptor = target: T3, truncated PTH receptor (Rattus norvegicus, UniProt P25961); conditions: cited from earlier work
T3 sequence (P25961 with tags, fused parts or gaps): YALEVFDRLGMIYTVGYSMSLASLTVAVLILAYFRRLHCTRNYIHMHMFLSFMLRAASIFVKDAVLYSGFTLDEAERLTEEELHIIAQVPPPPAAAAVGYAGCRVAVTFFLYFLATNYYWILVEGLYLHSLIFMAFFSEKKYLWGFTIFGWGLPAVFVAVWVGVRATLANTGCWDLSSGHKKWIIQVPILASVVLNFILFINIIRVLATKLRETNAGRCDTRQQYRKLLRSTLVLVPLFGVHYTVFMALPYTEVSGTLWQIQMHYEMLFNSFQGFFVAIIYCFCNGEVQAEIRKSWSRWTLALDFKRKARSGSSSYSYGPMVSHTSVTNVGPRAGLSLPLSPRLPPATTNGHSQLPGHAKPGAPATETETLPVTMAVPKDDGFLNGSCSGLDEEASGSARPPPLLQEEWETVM

Substance: PTH(1–9)-(Gly)5-PTH(15–31) (AVSEIQLMHGGGGGLNSMERVEWLRKKLQDV; modified PTH sequence) [PG5, S-(L)n-B peptide: PTH(1–9), linker (Gly)5, PTH(15–31)]
cAMP accumulation as compared to basal levels in un-stimulated cells (human PTH-1 receptor): increased levels of cAMP accumulation

Substance: [Ala^1] PTH(1–14)
bioactivity over the background level of bioactivity of the native PTH(1–14) peptide (human PTH-1 receptor; serine at position one replaced by alanine): measurable increase in bioactivity

Substance: PTH(1–14) (AVSEIQLMHNLGKH; not fully specified (C-terminus); listed as Homo sapiens) [N-terminal fragment (1–14) of parathyroid hormone]
EC50 (wildtype PTH receptor; intact receptor): ~100 µM | EC50 (truncated PTH receptor; read-out: EC50, cAMP formation): ~100 µM

Substance: PTH(1–34)
EC50 (wildtype PTH receptor; wildtype receptor): ~0.003 µM | potency, cAMP formation (truncated PTH receptor): severly diminished

Further lines, results first:

cAMP accumulation as compared to basal levels in un-stimulated cells (human PTH-1 receptor): increased levels of cAMP accumulation
Substance: PTH (1–5)-(Gly)9-PTH(15–31) (AVSEIGGGGGGGGGLNSMERVEWLRKKLQDV; modified PTH sequence) [PG9, S-(L)n-B peptide: PTH(1–5), linker (Gly)9, PTH(15–31)]

cAMP accumulation as compared to basal levels in un-stimulated cells (human PTH-1 receptor): increased levels of cAMP accumulation
Substance: PTH (1–9)-(Gly)7-PTH(17–31) (AVSEIQLMHGGGGGGGSMERVEWLRKKLQDV; modified PTH sequence) [PG7, S-(L)n-B peptide: PTH(1–9), linker (Gly)7, PTH(17–31)]
